Reference: US20240132578A1

What was measured:
Assay in all cases: cell-based or functional assay
[1] = molecular target: HIV-1 Env of isolate 92UG001 (clade D pseudovirus) (HIV-1)
[2] = molecular target: HIV-1 Env of isolate MGRM-D-028 (clade D pseudovirus) (HIV-1)
[3] = molecular target: HIV-1 MGRM-AE-003 Env (pseudovirus) (HIV-1)
[4] = molecular target: HIV-1 Env of isolate MGRM-D-020 (clade D pseudovirus) (HIV-1)
[5] = molecular target: HIV-1 Env of isolate 92RW020 (Clade A) (HIV-1)
[6] = molecular target: HIV-1 envelope glycoprotein (Env) of isolate MGRM-C-010 (HIV-1)
[7] = molecular target: HIV-1 Env of isolate APV_17, clade B (HIV-1)
[8] = molecular target: HIV-1 Env of isolate MGRM-D-004 (clade D pseudovirus) (HIV-1)
[9] = molecular target: HIV-1 Env of isolate 92UG037 (clade A pseudovirus) (HIV-1)
[10] = molecular target: HIV-1 MGRM-G-001 Env (pseudovirus) (HIV-1)
[11] = molecular target: HIV-1 Env of isolate MGRM-A-012 (clade A pseudovirus) (HIV-1)
[12] = molecular target: HIV-1 Env of isolate APV_6, clade B (HIV-1)
[13] = molecular target: HIV-1 92BR020 envelope (Env) on pseudovirus (HIV-1)
[14] = molecular target: HIV-1 Env of isolate MGRM-C-001 (HIV-1)
[15] = molecular target: HIV-1 JR-CSF Env K421A (HIV-1 (isolate JR-CSF)) (UniProt P20871)
[16] = molecular target: HIV-1 JR-CSF Env N411A (HIV-1 (isolate JR-CSF)) (UniProt P20871)
[17] = molecular target: HIV-1 Env of isolate MGRM-Chronic-B-008 (HIV-1)
[18] = molecular target: HIV-1 Env of pseudovirus isolate MGRM-C-017 (clade C) (HIV-1)
[19] = molecular target: HIV-1 Env of isolate MGRM-D-008 (pseudovirus) (HIV-1)
[20] = molecular target: HIV-1 Env of isolate MGRM-A-012 (subtype A) (HIV-1)
[21] = molecular target: HIV-1 Env of isolate MGRM-A-008 (subtype A) (HIV-1)
[22] = molecular target: HIV-1 Env of isolate MGRM-AE-004 (subtype AE) (HIV-1)
[23] = molecular target: HIV-1 Env of pseudovirus isolate MGRM-C-023 (clade C) (HIV-1)
[24] = molecular target: HIV-1 Env of isolate MGRM-D-012 (pseudovirus) (HIV-1)
[25] = molecular target: HIV-1 JR-CSF Env N392Q (HIV-1 (isolate JR-CSF)) (UniProt P20871)
[26] = molecular target: HIV-1 Env of isolate 92WR026 (pseudovirus) (HIV-1)
[27] = molecular target: HIV-1 Env of isolate MGRM-C-005 (HIV-1)
[28] = molecular target: HIV-1 94UG103 Env (HIV-1)
[29] = molecular target: HIV-1 MGRM-C-026 Env (HIV-1)
[30] = molecular target: HIV-1 Env of pseudovirus MGRM-F1-010 (HIV-1)
[31] = molecular target: HIV-1 Env of pseudovirus MGRM-F1-016 (HIV-1)
[32] = molecular target: HIV-1 Env of pseudovirus MGRM-F1-018 (HIV-1)
[33] = molecular target: HIV-1 Env of isolate MGRM-AE-002 (pseudovirus) (HIV-1)
[34] = molecular target: HIV-1 Env of isolate MGRM-G-028 (subtype G) (HIV-1)
[35] = molecular target: HIV-1 Env of isolate MGRM-G-004 (subtype G) (HIV-1)
[36] = molecular target: HIV-1 Env of isolate MG RM-A-011 (pseudovirus) (HIV-1)
[37] = molecular target: HIV-1 Env of isolate 92RW009 (subtype A) (HIV-1)
[38] = molecular target: HIV-1 Env of isolate MGRM-G-017 (subtype G) (HIV-1)

Substance	IC50 (µg/mL), pseudovirus neutralization [14] [µg/mL]	IC50 (µg/mL), pseudovirus neutralization [17] [µg/mL]	IC50, pseudovirus neutralization [18] [µg/mL]	IC50 (µg/mL), pseudovirus neutralization [19] [µg/mL]	IC50, pseudovirus neutralization [20] [µg/mL]	IC50, pseudovirus neutralization [21] [µg/mL]	IC50, pseudovirus neutralization [22] [µg/mL]	IC50, pseudovirus neutralization [23] [µg/mL]	IC50 (µg/mL), pseudovirus neutralization [24] [µg/mL]	IC50 (µg/mL), pseudovirus neutralization [26] [µg/mL]	IC50 (µg/mL), pseudovirus neutralization [27] [µg/mL]	IC50, pseudovirus neutralization [30] [µg/mL]	IC50, pseudovirus neutralization [31] [µg/mL]	IC50, pseudovirus neutralization [32] [µg/mL]	also measured
1443_C16 (PG16) (TCN-116) (antibody)															IC50, pseudovirus neutralization [1]: > 50 µg/mL; IC50, pseudovirus neutralization [2]: > 50 µg/mL; IC50 (µg/ml), pseudovirus neutralization [3]: 0.03 µg/mL; IC50, pseudovirus neutralization [4]: 16.3 µg/mL; IC90 (neutralization of pseudovirus) [5]: > 50 µg/mL; IC50 (µg/ml), pseudovirus neutralization [6]: > 50 µg/mL; IC50 (µg/ml), pseudovirus neutralization [7]: 24.8 µg/mL; IC50, pseudovirus neutralization [8]: 0.01 µg/mL; IC50 (µg/ml), pseudovirus neutralization [9]: 0.01 µg/mL; IC50 (µg/ml), pseudovirus neutralization [10]: 0.15 µg/mL; IC50 (µg/ml), pseudovirus neutralization [11]: 20.7 µg/mL; IC50 (µg/ml), pseudovirus neutralization [12]: 0.29 µg/mL; neutralization IC50 [13]: > 50 µg/mL
5114_A19 (PGT-128) (antibody)	> 50	0.143	1.06	0.033	0.025	> 50	> 50	0.026	> 50	0.01	0.03				Fold IC50 increase relative to wild-type (pseudovirus neutralization) [15]: 2 fold; Fold IC50 increase relative to wild-type (pseudovirus neutralization) [16]: 0.7 fold; Fold IC50 increase relative to wild-type (pseudovirus neutralization) [25]: 0.9 fold
5136_H01 (PGT-131) (antibody)	> 50	> 50	> 50	> 50	> 50	> 50	> 50	0.143	> 50	0.041	1.36				Fold IC50 increase relative to wild-type (pseudovirus neutralization) [15]: 11 fold; Fold IC50 increase relative to wild-type (pseudovirus neutralization) [16]: 0.6 fold; Fold IC50 increase relative to wild-type (pseudovirus neutralization) [25]: 0.4 fold
5147_N06 (PGT-130) (antibody)	> 50	5.18	> 50	> 50	> 50	> 50	2.43	0.151	> 50	0.037	0.935				Fold IC50 increase relative to wild-type (pseudovirus neutralization) [15]: 2.9 fold; Fold IC50 increase relative to wild-type (pseudovirus neutralization) [16]: 0.6 fold; IC50, pseudovirus neutralization [28]: 0.635 µg/mL; IC50, pseudovirus neutralization [29]: 0.0173 µg/mL; Fold IC50 increase relative to wild-type (pseudovirus neutralization) [25]: 1.2 fold
5329_C19 (PGT-136) (antibody)	7.52	> 50	> 50	> 50	> 50	> 50	> 50	3.2	> 50	> 50	> 50				
5343_B08 (PGT-135) (antibody)	10.1	> 50	> 50	> 50	> 50	> 50	> 50	0.051	> 50	0.068	> 50				Fold IC50 increase relative to wild-type (pseudovirus neutralization) [15]: 0.3 fold; Fold IC50 increase relative to wild-type (pseudovirus neutralization) [16]: 0.2 fold; Fold IC50 increase relative to wild-type (pseudovirus neutralization) [25]: > 250 fold
5345_I01 (PGT-137) (antibody)	21.5	> 50	> 50	> 50	> 50	> 50	> 50	0.23	> 50	0.092	> 50				
PGT-141 (4964_G22; 4993_K13) (antibody)												> 50	> 50	0.785	
PGT-142 (4995_E20) (antibody)												> 50	> 50	0.404	
PGT-143 (4980_N08) (antibody)												> 50	> 50	0.701	
PGT-144 (4970_K22) (antibody)												> 50	> 50	> 50	
PGT-145 (4995_P16) (antibody)												3.32	17.5	1.02	
VRC01 (antibody)												0.097	0.517	0.032	IC50 (µg/mL), single-round pseudovirus neutralization [33]: 0.217 µg/mL; IC50 (µg/mL), pseudovirus neutralization [34]: 0.164 µg/mL; IC50 (µg/mL), pseudovirus neutralization [35]: > 50 µg/mL; IC50 (µg/mL), single-round pseudovirus neutralization [36]: 0.273 µg/mL; IC50, pseudovirus neutralization [37]: 0.187 µg/mL; IC50 (µg/mL), pseudovirus neutralization [38]: 0.124 µg/mL
b12 (antibody)															IC50, pseudovirus neutralization [1]: 1.01 µg/mL; IC50, pseudovirus neutralization [2]: 0.78 µg/mL; IC50 (µg/ml), pseudovirus neutralization [3]: > 50 µg/mL; IC50, pseudovirus neutralization [4]: > 50 µg/mL; IC90 (neutralization of pseudovirus) [5]: > 50 µg/mL; IC50 (µg/ml), pseudovirus neutralization [6]: > 50 µg/mL; IC50 (µg/ml), pseudovirus neutralization [7]: > 50 µg/mL; IC50, pseudovirus neutralization [8]: > 50 µg/mL; IC50 (µg/ml), pseudovirus neutralization [9]: > 50 µg/mL; IC50 (µg/ml), pseudovirus neutralization [10]: > 50 µg/mL; IC50 (µg/ml), pseudovirus neutralization [11]: > 50 µg/mL; IC50 (µg/ml), pseudovirus neutralization [12]: > 50 µg/mL; neutralization IC50 [13]: 27.5 µg/mL
